Legend:
[1] = target: T1, recombinant GFP–N-Myc (UniProt P04198 1-464); assay: MST
T1 chain: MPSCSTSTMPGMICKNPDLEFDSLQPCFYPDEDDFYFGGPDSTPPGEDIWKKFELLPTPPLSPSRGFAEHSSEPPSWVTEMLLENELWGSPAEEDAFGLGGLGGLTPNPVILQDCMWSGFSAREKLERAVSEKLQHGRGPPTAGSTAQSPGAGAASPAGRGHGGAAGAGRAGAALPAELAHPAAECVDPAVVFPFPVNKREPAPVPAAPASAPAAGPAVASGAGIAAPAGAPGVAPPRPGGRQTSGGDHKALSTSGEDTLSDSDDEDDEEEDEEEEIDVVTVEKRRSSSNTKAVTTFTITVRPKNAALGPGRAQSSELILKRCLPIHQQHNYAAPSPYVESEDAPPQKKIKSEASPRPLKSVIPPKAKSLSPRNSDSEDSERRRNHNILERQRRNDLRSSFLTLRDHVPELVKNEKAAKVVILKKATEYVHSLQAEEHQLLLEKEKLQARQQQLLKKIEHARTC

[2] = target: recombinant GFP–C-Myc (UniProt P01106 1-454); assay: MST
Chain of recombinant GFP–C-Myc (P01106 whole entry): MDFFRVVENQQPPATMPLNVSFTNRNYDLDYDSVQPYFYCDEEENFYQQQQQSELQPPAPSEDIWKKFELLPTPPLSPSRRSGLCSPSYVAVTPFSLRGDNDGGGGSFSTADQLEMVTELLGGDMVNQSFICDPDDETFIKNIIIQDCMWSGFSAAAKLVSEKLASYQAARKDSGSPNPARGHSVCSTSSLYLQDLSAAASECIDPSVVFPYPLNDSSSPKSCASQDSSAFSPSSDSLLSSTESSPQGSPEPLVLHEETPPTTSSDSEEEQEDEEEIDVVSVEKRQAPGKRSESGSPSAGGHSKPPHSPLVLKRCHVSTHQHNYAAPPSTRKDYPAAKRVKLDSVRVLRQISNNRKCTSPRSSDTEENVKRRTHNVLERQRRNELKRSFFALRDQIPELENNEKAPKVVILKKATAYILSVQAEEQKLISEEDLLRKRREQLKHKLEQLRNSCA

B1: KLHL37-His recombinant protein (natural protein)
chain: MSVSVHENRKSRASSGSINIYLFHKSSYADSVLTHLNLLRQQRLFTDVLLHAGNRTFPCHRAVLAACSRYFEAMFSGGLKESQDSEVNFDNSIHPEVLELLLDYAYSSRVIINEENAESLLEAGDMLEFQDIRDACAEFLEKNLHPTNCLGMLLLSDAHQCTKLYELSWRMCLSNFQTIRKNEDFLQLPQDMVVQLLSSEELETEDERLVYESAINWISYDLKKRYCYLPELLQTVRLALLPAIYLMENVAMEELITKQRKSKEIVEEAIRCKLKILQNDGVVTSLCARPRKTGHALFLLGGQTFMCDKLYLVDQKAKEIIPKADIPSPRKEFSACAIGCKVYITGGRGSENGVSKDVWVYDTLHEEWSKAAPMLVARFGHGSAELKHCLYVVGGHTAATGCLPASPSVSLKQVEHYDPTINKWTMVAPLREGVSNAAVVSAKLKLFAFGGTSVSHDKLPKVQCYDQCENRWTVPATCPQPWRYTAAAVLGNQIFIMGGDTEFSACSAYKFNSETYQWTKVGDVTAKRMSCHAVASGNKLYVVGGYFGIQRCKTLDCYDPTLDVWNSITTVPYSLIPTAFVSTWKHLPS
EC50 [1]: 0.0983 nM | EC50 [2]: 2.54 nM

Source: PMC12259267 (2025)
